# Results taken from patent US8217006B2, “Inhibiting GS-FDH to modulate no bioactivity” (Duke University, priority 2001, dated 2012).
# B1: mouse GS-FDH (Mus musculus) (protein)
# chain: MANQVIRCKAAVAWEAGKPLSIEEIEVAPPKAHEVRIKILATAVCHTDAYTLSGADPEGCFPVILGHEGAGIVESVGEGVTKLKAGDTVIPLYIPQCGECKFCLNPKTNLCQKIRVTQGKGLMPDGTSRFTCKGKSVFHFMGTSTFSEYTVVADISVAKIDPSAPLDKVCLLGCGISTGYGAAVNTAKVEPGSTCAVFGLGGVGLAVIMGCKVAGASRIIGIDINKDKFAKAKEFGASECISPQDFSKSIQEVLVEMTDGGVDYSFECIGNVKVMRSALEAAHKGWGVSVVVGVAASGEEISTRPFQLVTGRTWKGTAFGGWKSVESVPKLVSEYMSKKIKVDEFVTGNLSFDQINQAFDLMHSGDSIRTVLKM
# Substrate: N[C@@H](CCC(=O)N[C@@H](CSN=O)C(=O)NCC(=O)O)C(=O)O
# Test: cells, lysate or membranes named
# Conditions: other: purified protein from RAW 264.7 cells; pH 8.0
protein,measurement,value
B1,Km,20 µM
same,kcat,"5,600 min^−1"
